US20230399394A1 (SUNSHINE GUOJIAN PHARMACEUTICAL SHANGHAI, published 2023)
Changes are numbered by the printed parent chain. In names and notes the source's numbering stands. Blank lines part the entries; values can stand above or below the binder they belong to.

Key:
Human IL-33-his [1] = target: T1, Human IL-33-his (human, UniProt O95760 112-270, biotinylated with EZ-Link NHS-Biotin where used as IL-33-his-biotin); assay: ELISA as Example 9, IL-33-his-biotin on streptavidin plate
T1 construct: Used plain (SPR, cell assays) and biotinylated (ELISA); also called IL-33-his-biotin
T1 sequence: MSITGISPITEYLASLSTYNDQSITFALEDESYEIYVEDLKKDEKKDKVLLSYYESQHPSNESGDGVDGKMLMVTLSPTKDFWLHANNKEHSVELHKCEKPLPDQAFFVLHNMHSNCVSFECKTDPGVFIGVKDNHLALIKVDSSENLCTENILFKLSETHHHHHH

Human IL-33-his [2] = target: T1, Human IL-33-his; assay: ELISA, IL-33-his-biotin on streptavidin plate, anti-human Fc detection
Method: SA protein was diluted to 2 μg/mL to coat ELISA plate at 100 μL/well overnight at 4° C. The plate was washed with PBST (PBS containing 0.05% Tween20) for 3 times, and blocked with 2% BSA prepared in PBS at 200 μL/well, at room temperature for 2 h. After the plate was washed twice with PBST, IL-33-his-biotin protein was diluted to 1 μg/mL with 1% BSA prepared in PBST, and was added to ELISA plate at 100 μL/well. The plate was incubated at room temperature for 1 h, and each monoclonal antibody was diluted with 1% BSA prepared in PBST in a 3-fold gradient. The highest concentration of antibody was 10 μg/mL, and the antibody was diluted for 12 gradients. Each diluted monoclonal antibody was added to ELISA wells with 100 μL/well, and the plate was incubated at room temperature for 1 h. Each sample was added to duplicate wells in parallel. The plate was washed with PBST for 3 times, and HRP-anti human IgG Fc secondary antibody prepared with PBST was diluted at an appropriate ratio, and was added to ELISA wells at 100 μL/well. The plate was incubated at room temperature for 1 h. After washing with PBST for 3 times, TMB developing solution was added at 100 μL/well. When the development met expectations, 2M H₂SO₄ was added to terminate the chromogenic reaction at 70 μL/well. Each reaction solution was shaken uniformly and OD450 nm was read on a microplate reader. The data was analyzed and EC₅₀ was calculated.

Human IL-33-his [3] = target: T1, Human IL-33-his; assay: competition ELISA, antibody mixed with IL-33-his-biotin, ST2-Fc on plate; competitor ST2-Fc
Method: (§1) ST2-Fc protein was diluted to 1 μg/mL with ELISA coating solution to coat ELISA plate with 100 μL/well. The plate was placed in a wet box at 4° C. for 16 h for coating. The ELISA plate was washed 3 times with PBST, and then was blocked with 2% BSA prepared in PBS at 200 μL/well at room temperature for 2 h. The plate was washed once with PBST, and was patted dry to remove the excess blocking solution. Each monoclonal antibody was diluted with 1% BSA prepared in PBST in a 3-fold gradient. The highest concentration of antibody was 10 μg/mL, and the antibody was diluted for 11 gradients. The diluted antibody was mixed 1:1 with 10 ng/ml IL-33-his-biotin, and then the mixture was added into the ELISA well at 100 μL/well. The plate was incubated at room temperature for 1 h. Each concentration was added to duplicate wells in parallel (maximum final concentration of antibody was […], final concentration of IL-33-his-biotin was 5 ng/mL). Unbound or non-specifically bound primary antibodies were washed out. According to the instructions of the antibody, HRP labeled streptavidin secondary antibody was diluted to an appropriate concentration with antibody diluent solution, then it was added to ELISA plate with 100 μL/well, and was incubated at room temperature for 1 h. The ELISA plate was washed with PBST for 5 times, and was patted dry on absorbent paper to remove excess liquid. TMB developing solution was added with 100 μL/well for development to an appropriate degree. 2M H₂SO₄ was added with 70 μL/well to terminate development, and the absorbance was measured at 450 nm on a multifunctional microplate reader. The data were analyzed.

Human IL-33-his [4] = target: T1, Human IL-33-his; assay: cell-based or functional assay
Human IL-33-his [5] = target: T1, Human IL-33-his; assay: competition ELISA as Example 10, ST2-Fc on plate; competitor ST2-Fc
Method: as §1
The blocking effect of the above humanized antibodies on the binding of IL-33 to its receptor ST2 was determined by the ELISA method, and the relevant experimental methods were referred to Example 10.

Human IL-33-his [6] = target: T1, Human IL-33-his; assay: SPR Biacore 8K, antibody captured on Protein A/G chip, IL-33-his as analyte, 1:1 model
Method: A chip with covalently coupled Protein A/G (purchased from GE Healthcare, catalog number BR-1005-30) was used to capture each antibody to be tested, and the relevant operating parameters were as follows: The antibody concentration was […], the contact time was 75 s, the flow rate was […], and the regeneration contact time was 30 s. The IL-33-his antigen was diluted with HBS-EP pH7.4 buffer solution (purchased from GE Healthcare, catalog number BR-1006-69). The maximum concentration was 50 nM, and diluted to 0.39 nM by two-fold dilution. Duplicate wells and 0 concentration point well were set, and 6M guanidine hydrochloride solution was used as the regeneration buffer. The sample was injected on Biacore 8K according to the following parameters, the binding time was 180 s, the dissociation time was 900 s, the flow rate was 30 μL/min, and the regeneration contact time was 30 s. After running, Biacore 8K Evaluation Software was used to analyze the data according to the “1:1 binding kinetics model”, and the binding kinetics parameters of each antibody to IL-33 were obtained.

- EC50 (Human IL-33-his [1]): 0.255 nM
- EC50 (Human IL-33-his [2]): 0.178 nM
- IC50 (Human IL-33-his [3]): 0.853 nM
B1: 871G1-ch (antibody, human IgG4 S228P, kappa, V domains shown)
VH: QVHLKESGPGLVAPSQSLSITCNVSGFSLSKYGVHWIRQTPGRGLDWLGVLRAGGTISYNSALMSRLSISEDISKSQVFLKMNDLQTDDSAIYFCARDHYYYSSFGGFASWGQGTLVTVSA
VL: DIQMTQSPASQSASLGESVTITCLASQTIGAWLAWYRQQPGKSPQLLIYAATRLADGVPSRFSGSGSGTKFSFKINNLQAEDFVIYYCQQLNSTPYTFGGGTRLEMRT
notes: Chimeric: human IgG4 (S228P) and human kappa constant regions; also called chimeric antibody 871G1-ch

- EC50 (Human IL-33-his [1]): 0.177 nM
- EC50 (Human IL-33-his [2]): 0.144 nM
- IC50 (Human IL-33-his [3]): 0.634 nM
B2: 874F7-ch (antibody, human IgG4 S228P, kappa, V domains shown)
VH: QVQLKESGPGLVAPSHSLSITCNVSGFSLSKYGVHWIRQIPGRGLDWLGVLRAGGSTGYNSALMSRLSISKDSSKSQVFLKMNDLRTDDTAVYFCVRDHYYYSSYGGFVYWGQGTLVTVSA
VL: B1 VL with K70E, I85S, N92D, T94S
notes: Chimeric: human IgG4 (S228P) and human kappa constant regions; also called chimeric antibody 874F7-ch

- IC50 of inhibition of IFNγ secretion by NK cells induced by IL-33 (Human IL-33-his [4]): 0.851 nM
- IC50 of the inhibitory effect on IL-6 expression in HUVEC cells induced by IL-33 (Human IL-33-his [4]): 0.21 nM
- IC50 of the inhibitory effect on the IFN-γ secretion of PBMC induced by IL-33 (Human IL-33-his [4]): 1.4 nM
- EC50 (Human IL-33-his [1]): 0.191 nM
- IC50 (Human IL-33-his [5]): 0.404 nM
- Kd (Human IL-33-his [6]): 1.71 nM
- koff (Human IL-33-his [6]): 0.000504 s⁻¹
- kon (Human IL-33-his [6]): 295000 M⁻¹ s⁻¹
B3: 871G1-Hu1 (antibody, human IgG4 S228P, kappa, V domains shown)
VH: QVQLQESGPGLVKPSETLSLTCTVSGFSLSKYGVHWIRQPPGKGLEWIGVLRAGGTISYNSALMSRVTISEDISKSQVSLKLSSVTAADTAVYYCARDHYYYSSFGGFASWGQGTLVTVSS
VL: DIQMTQSPSSVSASVGDRVTITCLASQTIGAWLAWYQQKPGKSPKLLIYAATRLADGVPSRFSGSGSGTDFTLTISSLQPEDFATYYCQQLNSTPYTFGQGTKVEIKR
notes: Humanized; also called humanized antibody 871G1-Hu1

- IC50 of inhibition of IFNγ secretion by NK cells induced by IL-33 (Human IL-33-his [4]): 1.56 nM
- IC50 of the inhibitory effect on IL-6 expression in HUVEC cells induced by IL-33 (Human IL-33-his [4]): 0.05 nM
- IC50 of the inhibitory effect on the IFN-γ secretion of PBMC induced by IL-33 (Human IL-33-his [4]): 1.74 nM
- EC50 (Human IL-33-his [1]): 0.136 nM
- IC50 (Human IL-33-his [5]): 0.35 nM
- Kd (Human IL-33-his [6]): 2.97 nM
- koff (Human IL-33-his [6]): 0.000576 s⁻¹
- kon (Human IL-33-his [6]): 194000 M⁻¹ s⁻¹
B4: 874F7-Hu2 (antibody, human IgG4 S228P, kappa, V domains shown)
VH: QVQLQESGPGLVKPSETLSLTCTVSGFSLSKYGVHWIRQPPGKGLEWLGVLRAGGSTGYNSALMSRLTISKDSSKSQVSLKLSSVTAADTAVYYCVRDHYYYSSYGGFVYWGQGTLVTVSS
VL: B3 VL with N92D, T94S
notes: Humanized; also called humanized antibody 874F7-Hu2

- EC50 (Human IL-33-his [1]): 0.249 nM
B5: 864F3-Hu1 (antibody, human IgG4 S228P, kappa, V domains shown)
VH: QVQLQESGPGLVKPSETLSLTCTVSGFSLTNYGVHWIRLPPGKGLEWIGVIRAGGSSDYNSALMSRVTISKDNSKSQVSLKLSSVTAADTAVYYCARDHYFSNSYGGSPYWGQGTLVTVSS
VL: B3 VL with V11L, G30A, A31T, N92Y, S93N
notes: Humanized; also called humanized antibody 864F3-Hu1

- EC50 (Human IL-33-his [1]): 0.187 nM
B6: 871G1-HuG (antibody, human IgG4 S228P, kappa, V domains shown)
VH: B3 VH with E71V, I73T, S76N, V78F
VL: B3 VL
notes: Humanized; also called humanized antibody 871G1-HuG

- EC50 (Human IL-33-his [1]): 0.138 nM
B7: 864F3-Hu3 (antibody, human IgG4 S228P, kappa, V domains shown)
VH: B3 VH with E71V, I73T, S76N, V78F
VL: B3 VL with V11L, G30A, A31T, N92Y, S93N
notes: Humanized; also called humanized antibody 864F3-Hu3

- IC50 of inhibition of IFNγ secretion by NK cells induced by IL-33 (Human IL-33-his [4]): 1.02 nM
- IC50 of the inhibitory effect on IL-6 expression in HUVEC cells induced by IL-33 (Human IL-33-his [4]): 0.147 nM
- IC50 of the inhibitory effect on the IFN-γ secretion of PBMC induced by IL-33 (Human IL-33-his [4]): 0.839 nM
- EC50 (Human IL-33-his [1]): 0.146 nM
- IC50 (Human IL-33-his [5]): 0.473 nM
- Kd (Human IL-33-his [6]): 1.36 nM
- koff (Human IL-33-his [6]): 0.000439 s⁻¹
- kon (Human IL-33-his [6]): 323000 M⁻¹ s⁻¹
B8: 864F3-Hu5 (antibody, human IgG4 S228P, kappa, V domains shown)
VH: B3 VH with I48L, V67L
VL: B3 VL with V11L, G30A, A31T, N92Y, S93N
notes: Humanized; also called humanized antibody 864F3-Hu5

- IC50 of inhibition of IFNγ secretion by NK cells induced by IL-33 (Human IL-33-his [4]): 0.9 nM
- IC50 of the inhibitory effect on IL-6 expression in HUVEC cells induced by IL-33 (Human IL-33-his [4]): 0.175 nM
- IC50 of the inhibitory effect on the IFN-γ secretion of PBMC induced by IL-33 (Human IL-33-his [4]): 1.06 nM
- EC50 (Human IL-33-his [1]): 0.176 nM
- IC50 (Human IL-33-his [5]): 0.361 nM
- Kd (Human IL-33-his [6]): 1.76 nM
- koff (Human IL-33-his [6]): 0.000527 s⁻¹
- kon (Human IL-33-his [6]): 300000 M⁻¹ s⁻¹
B9: 871G1-Hu2 (antibody, human IgG4 S228P, kappa, V domains shown)
VH: B3 VH with I48L, V67L
VL: B3 VL
notes: Humanized; also called humanized antibody 871G1-Hu2

- EC50 (Human IL-33-his [1]): 0.76 nM
B10: 864F3-HuG (antibody, human IgG4 S228P, kappa, V domains shown)
VH: B5 VH with L39Q, K71V, N73T, S76N, V78F
VL: B3 VL with V11L, G30A, A31T, N92Y, S93N
notes: Humanized; also called humanized antibody 864F3-HuG

- EC50 (Human IL-33-his [1]): 0.181 nM
B11: 864F3-Hu2 (antibody, human IgG4 S228P, kappa, V domains shown)
VH: B5 VH with I37V, I48L, V67L
VL: B3 VL with V11L, G30A, A31T, N92Y, S93N
notes: Humanized; also called humanized antibody 864F3-Hu2

- EC50 (Human IL-33-his [1]): 0.17 nM
B12: 874F7-HuG (antibody, human IgG4 S228P, kappa, V domains shown)
VH: B4 VH with L48I, L67V, K71V, S73T, S76N, V78F, V96A
VL: B3 VL with N92D, T94S
notes: Humanized; also called 874F7-Hµg; humanized antibody 874F7-HuG
